# T1: Gluc1-TAp73α (human, UniProt O15350 1-636)
# T1 construct: also called full-length TAp73α; source: HEK293T, transfected (pSPICA vector), in cells; not shown: Gluc1 (fragment of Gaussia princeps luciferase), N-terminal, kept
# T1 sequence (looked up): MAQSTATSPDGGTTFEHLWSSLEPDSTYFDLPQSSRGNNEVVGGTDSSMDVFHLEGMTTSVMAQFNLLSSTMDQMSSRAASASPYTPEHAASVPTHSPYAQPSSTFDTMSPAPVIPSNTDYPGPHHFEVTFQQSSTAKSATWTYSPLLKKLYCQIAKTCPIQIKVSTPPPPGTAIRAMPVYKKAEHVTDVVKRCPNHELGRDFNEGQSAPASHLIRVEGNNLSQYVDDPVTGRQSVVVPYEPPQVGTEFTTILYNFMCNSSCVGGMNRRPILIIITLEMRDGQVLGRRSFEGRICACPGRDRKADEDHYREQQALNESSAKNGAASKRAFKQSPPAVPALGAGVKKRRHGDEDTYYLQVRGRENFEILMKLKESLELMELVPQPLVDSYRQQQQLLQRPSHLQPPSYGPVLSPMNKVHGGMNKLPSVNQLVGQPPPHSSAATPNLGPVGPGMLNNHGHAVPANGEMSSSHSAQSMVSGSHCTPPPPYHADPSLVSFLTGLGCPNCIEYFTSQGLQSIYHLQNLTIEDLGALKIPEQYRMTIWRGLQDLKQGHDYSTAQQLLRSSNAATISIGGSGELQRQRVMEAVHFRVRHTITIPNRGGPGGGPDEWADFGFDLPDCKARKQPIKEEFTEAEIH
# T2: Gluc1-ΔNp73α FL (human, UniProt O15350-8 1-587)
# T2 construct: ΔNp73α isoform of p73, whole ORF, 587 residues by the printed numbering; numbers count on: ΔNp73α; source: HEK293T, transfected (pSPICA vector), in cells; not shown: Gluc1 (fragment of Gaussia princeps luciferase), N-terminal, kept
# T2 sequence (looked up): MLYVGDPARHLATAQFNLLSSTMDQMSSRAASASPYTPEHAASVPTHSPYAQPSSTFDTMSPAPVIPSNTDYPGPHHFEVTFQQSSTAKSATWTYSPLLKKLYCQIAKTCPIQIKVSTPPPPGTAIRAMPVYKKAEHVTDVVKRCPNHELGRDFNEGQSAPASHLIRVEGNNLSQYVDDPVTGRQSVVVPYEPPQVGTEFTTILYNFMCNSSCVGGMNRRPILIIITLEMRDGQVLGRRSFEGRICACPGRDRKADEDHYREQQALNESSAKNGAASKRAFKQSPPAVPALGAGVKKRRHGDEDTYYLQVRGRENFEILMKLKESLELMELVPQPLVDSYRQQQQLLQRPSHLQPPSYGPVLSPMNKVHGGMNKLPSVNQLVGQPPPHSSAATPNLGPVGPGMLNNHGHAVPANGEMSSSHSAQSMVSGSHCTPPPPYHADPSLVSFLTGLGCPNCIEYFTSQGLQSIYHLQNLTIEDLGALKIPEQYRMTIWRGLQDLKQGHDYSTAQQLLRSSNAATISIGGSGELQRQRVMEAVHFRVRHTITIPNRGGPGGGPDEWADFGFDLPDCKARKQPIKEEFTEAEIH
# B1: Gluc2-DP1 (natural protein, human, UniProt Q14186 1-410, looked up)
# chain: MAKDAGLIEANGELKVFIDQNLSPGKGVVSLVAVHPSTVNPLGKQLLPKTFGQSNVNIAQQVVIGTPQRPAASNTLVVGSPHTPSTHFASQNQPSDSSPWSAGKRNRKGEKNGKGLRHFSMKVCEKVQRKGTTSYNEVADELVAEFSAADNHILPNESAYDQKNIRRRVYDALNVLMAMNIISKEKKEIKWIGLPTNSAQECQNLEVERQRRLERIKQKQSQLQELILQQIAFKNLVQRNRHAEQQASRPPPPNSVIHLPFIIVNTSKKTVIDCSISNDKFEYLFNFDNTFEIHDDIEVLKRMGMACGLESGSCSAEDLKMARSLVPKALEPYVTEMAQGTVGGVFITTAGSTSNGTRFSASDLTNGADGMLATSSNGSQYSGSRVETPVSYVGEDDEEDDDFNENDEDD
# notes: human DP1, whole ORF (bought from Addgene); source: HEK293T, transfected (pSPICA vector), in cells; not shown: Gluc2 (fragment of Gaussia princeps luciferase), N-terminal, kept
# B2: Gluc2-E2F4 FL (natural protein)
# chain: not shown
# notes: human E2F4, whole ORF (bought from Addgene), 413 residues by the printed numbering; source: HEK293T, transfected (pSPICA vector), in cells; not shown: Gluc2 (fragment of Gaussia princeps luciferase), N-terminal, kept
# Assays:
# Assay in all cases: split reporter (BiFC, NanoBiT); Gaussia princeps protein complementation assay (GPCA): Gluc1 and Gluc2 N-terminal fusions co-transfected in HEK293T, luminescence of lysates after 48 h as normalized luminescence ratio (NLR); pairs count as interacting if NLR is above 5
# Conditions in all cases: partners not purified
# Gluc1-E2F4 = target: T3, Gluc1-E2F4 (human, UniProt Q16254 1-413)
# T3 construct: human E2F4, whole ORF (bought from Addgene); source: HEK293T, transfected (pSPICA vector), in cells; not shown: Gluc1 (fragment of Gaussia princeps luciferase), N-terminal, kept
# T3 sequence (Q16254 whole entry, the tested form may be a part): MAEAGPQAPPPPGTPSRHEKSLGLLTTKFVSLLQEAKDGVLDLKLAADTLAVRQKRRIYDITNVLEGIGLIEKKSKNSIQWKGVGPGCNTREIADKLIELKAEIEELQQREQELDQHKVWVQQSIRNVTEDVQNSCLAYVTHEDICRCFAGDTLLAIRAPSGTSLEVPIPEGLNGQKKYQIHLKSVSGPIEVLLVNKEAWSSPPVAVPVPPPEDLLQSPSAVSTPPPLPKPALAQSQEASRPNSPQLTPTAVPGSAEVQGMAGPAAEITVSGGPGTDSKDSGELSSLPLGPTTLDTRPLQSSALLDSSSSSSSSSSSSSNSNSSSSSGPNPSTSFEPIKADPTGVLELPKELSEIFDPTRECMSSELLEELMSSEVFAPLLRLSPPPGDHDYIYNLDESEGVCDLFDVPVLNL
# Gluc1-TAp73α = target: T1, Gluc1-TAp73α
# Gluc1-ΔNp73α FL = target: T2, Gluc1-ΔNp73α FL
Binder,normalized luminescence ratio (NLR) (Gluc1-E2F4),binding response relative to that obtained with ΔNp73α (Gluc1-TAp73α),normalized luminescence ratio (NLR) (Gluc1-ΔNp73α FL)
B1,~500,,
B2,,~50%,> 20
